No end group written: not given here.
Biological target: T1, recombinant endotheliase 1 (human, UniProt Q9UL52 192-423, limits assumed)
T1 construct: also called ET1; rET1
T1 sequence: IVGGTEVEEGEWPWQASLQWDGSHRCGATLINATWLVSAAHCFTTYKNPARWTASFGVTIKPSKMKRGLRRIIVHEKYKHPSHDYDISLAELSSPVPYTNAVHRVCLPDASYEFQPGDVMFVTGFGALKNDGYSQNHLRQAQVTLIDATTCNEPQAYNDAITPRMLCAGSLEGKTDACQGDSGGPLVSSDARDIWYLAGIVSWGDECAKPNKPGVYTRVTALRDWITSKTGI
Assay: inhibition of ET1 activity

- Ki: 500 nM
Binder: AGKWHCKGYAPDCQMWGT (not fully specified (bridges); cysteine pairing not given here, synthetic peptide) [DX-1107]
